Results on 2 molecules are retold here after patent US20230287109A1 (INGENIA THERAPEUTICS, published 2023).

The Kd is the constant that tells how readily two partners part at equilibrium. Read a low Kd as higher affinity.

The target of the test is T1, rabbit Tie2 (form not stated) (rabbit).
T1 construct: also called rabbit ortholog of Tie-2
Briefly: SPR, summary table, column Rabbit Tie2, Kd [M].

B1: PRO593, PEGylated with two 20 kDa linear PEG (Fc fusion)
heavy: EVQLVQSGAEVKKPGASVKVSCKASGYSFTSYWMNWVRQAPGQGLEWMGMIHPSDSETRLNQKFMDRVTMTRDTSTSTVYMELSSLRSEDTAVYYCARGLYGNSWGQGTLVTVSSASTKGPSVFPLAPSSKSTSGGTAALGCLVKDYFPEPVTVSWNSGALTSGVHTFPAVLQSSGLYSLSSVVTVPSSSLGTQTYICNVNHKPSNTKVDKKVEPKSSDKTHTSPPSPAPEAAGGPSVFLFPPKPKDTLMISRTPEVTCVVVDVSHEDPEVKFNWYVDGVEVHNAKTKPREEQYNSTYRVVSVLTVLAQDWLNGKEYKCKVSNKALPAPIEKTISKAKGQPREPQVYTLPPSRDELTKNQVSLTCLVKGFYPSDIAVEWESNGQPENNYKTTPPVLDSDGSFFLYSKLTVDKSRWQQGNVFSCSVMHEALHNHYTQKSLSLSPGKGGGGSGGGGSGGGGSGGGGSSDTGRPFVEMYSEIPEIIHMTEGRELVIPCRVTSPNITVTLKKFPLDTLIPDGKRIIWDSRKGFIISNATYKEIGLLTCEATVNGHLYKTNYLTHRQTNTIIDVVLSPSHGIELSVGEKLVLNCTARTELNVGIDFNWEYPSSKHQHKKLVNRDLKTQSGSEMKKFLSTLTIDGVTRSDQGLYTCAASSGLMTKKNSTFVRVHEKGGSSKCA
light: DIQMTQSPSSLSASVGDRVTITCRASQDIGISLNWYQQEPGKAIKRLIYATSSLDSGVPKRFSGSRSGTEYTLTISSLESEDFADYYCLQYASSPYTFGGGTKLEIKRTVAAPSVFIFPPSDEQLKSGTASVVCLLNNFYPREAKVQWKVDNALQSGNSQESVTEQDSKDSTYSLSSTLTLSKADYEKHKVYACEVTHQGLSSPVTKSFNRGES
modifications: chain 1 pos 676: Cys carrying 20 kDa linear PEG-maleimide, written C (two PEG per antibody, one on each heavy chain).
notes: All interchain disulfide bonds removed
On to B1, for which the Kd was under 0.127 nM.

B2: PRO593, PEGylated with two 40 kDa branched PEG (Fc fusion)
heavy: EVQLVQSGAEVKKPGASVKVSCKASGYSFTSYWMNWVRQAPGQGLEWMGMIHPSDSETRLNQKFMDRVTMTRDTSTSTVYMELSSLRSEDTAVYYCARGLYGNSWGQGTLVTVSSASTKGPSVFPLAPSSKSTSGGTAALGCLVKDYFPEPVTVSWNSGALTSGVHTFPAVLQSSGLYSLSSVVTVPSSSLGTQTYICNVNHKPSNTKVDKKVEPKSSDKTHTSPPSPAPEAAGGPSVFLFPPKPKDTLMISRTPEVTCVVVDVSHEDPEVKFNWYVDGVEVHNAKTKPREEQYNSTYRVVSVLTVLAQDWLNGKEYKCKVSNKALPAPIEKTISKAKGQPREPQVYTLPPSRDELTKNQVSLTCLVKGFYPSDIAVEWESNGQPENNYKTTPPVLDSDGSFFLYSKLTVDKSRWQQGNVFSCSVMHEALHNHYTQKSLSLSPGKGGGGSGGGGSGGGGSGGGGSSDTGRPFVEMYSEIPEIIHMTEGRELVIPCRVTSPNITVTLKKFPLDTLIPDGKRIIWDSRKGFIISNATYKEIGLLTCEATVNGHLYKTNYLTHRQTNTIIDVVLSPSHGIELSVGEKLVLNCTARTELNVGIDFNWEYPSSKHQHKKLVNRDLKTQSGSEMKKFLSTLTIDGVTRSDQGLYTCAASSGLMTKKNSTFVRVHEKGGSSKCA
light: DIQMTQSPSSLSASVGDRVTITCRASQDIGISLNWYQQEPGKAIKRLIYATSSLDSGVPKRFSGSRSGTEYTLTISSLESEDFADYYCLQYASSPYTFGGGTKLEIKRTVAAPSVFIFPPSDEQLKSGTASVVCLLNNFYPREAKVQWKVDNALQSGNSQESVTEQDSKDSTYSLSSTLTLSKADYEKHKVYACEVTHQGLSSPVTKSFNRGES
modifications: chain 1 pos 676: Cys carrying 40 kDa branched PEG-maleimide, written C (one PEG per heavy chain, two per antibody)
In the case of B2, the dissociation constant (Kd) was under 0.13 nM.
